US20220153873A1 (ICAHN SCHOOL OF MEDICINE AT MOUNT SINAI, published 2022)
Where two headings read alike, the source gives them in different places.

B1: 1F4 antibody (murine IgG2a, hybridoma-produced) (antibody, V domains shown)
VH: QVHLQQSGSELRSPGSSVKLSCKDFDSEVFPIVYMRWIRQKPGHGFEWIGDILPSFGRTIYGEKFEDKATLDADTVSNTAYLELNSLTSEDSAIYYCARGDHGNWLAYWGQGTLVTVSA
VL: DIVMTQSHKFMSTSVGDRVTITCKASQDVSTAVAWYQQKPGQSPKLLIYWASTRHTGVPNRFTGIISGTDYTLTISSVQAEDLALYYCQQHYSAPWTFGGGTKLEIK
notes: also called mAb 1F4; IF4
B2: 3G1 antibody (murine IgG2a, hybridoma-produced) (antibody, V domains shown)
VH: QVQLQQSGAELMKPGASVKISCKATGYKFTSYWIGWVKQRPGHGLEWCGEIFPGSGSINYNEKFKGKATFTADTSSNTAYLQLTSLTSEDSAVYYCARGEDYYGSSYGAMDYWGQGTSLTVSS
VL: DVQITQSPSYLAASPGETITINCRASKSISKYVAWYQEKPGRTNKVLIYSGSILSFGNPSRFSGSGSGTDFTLTISSLEPEDFAMYYCQQHNEYPWTFGGGTKLEIK
notes: also called mAb 3G1
B3: 4B2 antibody (murine IgG2a, hybridoma-produced) (antibody, V domains shown)
VH: QIQLVQSGPELKKPGETVKISCKASGFTFTDYPMHWVKQAPGKSLKWMGWINTETEEPTYSDDFKGRFALSLETSASTTYLQINNLKNEDTATYFCARSGYYYGSTYAWFGYWGQGTLVTVSA
VL: DVVMTQIPLSLPVSLGDQASISCRSSQSLIHTNGDTFLHWYLQKPGQSPKLLIYKVSNRFSGVPDRFTGGGSGTDFTLKISRVEAEDLGIYFCSQSALFPYTFGGGTNLEIK
notes: also called mAb 4B2
B4: recombinant 1F2 IgG2a (antibody, V domains shown)
VH: QVHLQQSGPEVARPGASVKLSCKASGYTFTDYYLNWVKQRPRQGLEWIGQIHPGSTNTYYNEKFKGKATLTADKSSSTAYMQLSSLTSEDSAVYFCARSLGDGYYVYAMDYWGQGTAVTVSS
VL: DIVMTQSQKFMSTSVGDRVSVTCKASQNVVTNVVWYQQKPGQSPKPLIYSASYRYSGVPDRFTGSGSGTDFTLTISNVQSEDLAEYCCQQYHSYPFTFGSGTKLEVK
B5: 1F2 antibody (murine IgG2a, hybridoma-produced) (antibody, V domains shown)
VH: B4 VH
VL: B4 VL
notes: also called mAb 1F2; IF2
B6: recombinant 1F2 monomeric IgA (antibody, V domains shown)
VH: B4 VH
VL: B4 VL
B7: recombinant 1F2 IgG2b (antibody, V domains shown)
VH: B4 VH
VL: B4 VL
B8: recombinant 1F2 IgG1 (antibody, V domains shown)
VH: B4 VH
VL: B4 VL
B9: recombinant 4F11 IgG2b (antibody, V domains shown)
VH: DVKLVESGGDLVKPGGSLKLSCAASGFTFSAYSMSWVRQTPERRLEWVATINTGGSFTYYPDSVKGRFTISRDNAKNTLYLQMSSLKSEDTAMYFCTRVSDYGNSAYFPYWGQGTLVIVSA
VL: QVVLTQSPALISASPGEKVTMTCSASSNVNYMSWYQQRPRSSPKPWIYLTSKLASGVPPRFSGSGSGTSYSLTISSMEAEDVATYYCQQWSSDPQTFGGGTKVEIK
B10: recombinant 4F11 monomeric IgA (antibody, V domains shown)
VH: B9 VH
VL: B9 VL
B11: 4F11 antibody (murine IgG2b, hybridoma-produced) (antibody, V domains shown)
VH: B9 VH
VL: B9 VL
notes: also called mAb 4F11; 4F11 Hybridoma
B12: recombinant 4F11 IgG1 (antibody, V domains shown)
VH: B9 VH
VL: B9 VL
B13: recombinant 4F11 IgG2a (antibody, V domains shown)
VH: B9 VH
VL: B9 VL

Legend:
[1] = target: recombinant neuraminidase (rNA) of B/Florida/04/06 (influenza B virus B/Florida/04/06)
[2] = target: neuraminidase of B/Lee/40 (purified whole virus) (influenza B virus B/Lee/40, UniProt P03474 1-466); assay: ELISA on purified whole virus
neuraminidase of B/Lee/40 (purified whole virus), sequence (P03474 whole entry): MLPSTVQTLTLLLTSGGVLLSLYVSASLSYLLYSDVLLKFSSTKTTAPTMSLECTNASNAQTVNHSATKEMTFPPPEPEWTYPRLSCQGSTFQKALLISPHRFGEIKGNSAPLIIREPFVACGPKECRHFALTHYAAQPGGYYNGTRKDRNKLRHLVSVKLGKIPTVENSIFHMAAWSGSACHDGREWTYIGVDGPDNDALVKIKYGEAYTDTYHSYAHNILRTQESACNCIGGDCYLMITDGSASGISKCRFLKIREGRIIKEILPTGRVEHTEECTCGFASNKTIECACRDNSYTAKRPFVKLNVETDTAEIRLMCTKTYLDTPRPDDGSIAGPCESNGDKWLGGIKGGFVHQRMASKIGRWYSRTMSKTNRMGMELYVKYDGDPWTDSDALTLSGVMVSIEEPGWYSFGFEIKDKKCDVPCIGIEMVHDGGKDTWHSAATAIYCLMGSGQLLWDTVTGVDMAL

[3] = target: neuraminidase of wild type B/Malaysia/2506/04 virus (on virus and on infected MDCK cells) (influenza B virus B/Malaysia/2506/04); assay: cell-based or functional assay
[4] = target: recombinant neuraminidase (rNA) of B/Florida/04/06 (influenza B virus B/Florida/04/06); assay: ELISA, biotinylated 3G1 on rNA B/Florida/04/2006, no competitor
[5] = target: recombinant neuraminidase (rNA) of B/Florida/04/06 (influenza B virus B/Florida/04/06); assay: ELISA, biotinylated 4B2 on rNA B/Florida/04/2006, no competitor
[6] = target: recombinant neuraminidase (rNA) of B/Malaysia/2506/04 (influenza B virus B/Malaysia/2506/04)
[7] = target: recombinant neuraminidase (rNA) of B/Florida/04/06 (influenza B virus B/Florida/04/06); assay: ELISA, rNA B/Florida/4/2006 coated at 2 ug/mL
[8] = target: recombinant neuraminidase (rNA) of B/Florida/04/06 (influenza B virus B/Florida/04/06); remark: listed apart in the source
[9] = target: recombinant neuraminidase (rNA) of B/Florida/04/06 (influenza B virus B/Florida/04/06); assay: ELISA, biotinylated 1F2 on rNA B/Florida/04/2006, no competitor
[10] = target: recombinant neuraminidase (rNA) of B/Malaysia/2506/04 (influenza B virus B/Malaysia/2506/04); assay: ELISA, rNA B/Malaysia/2506/04 coated at 2 ug/mL

Binder	binding result [2]	Kd [6] [nM]	EC50 (read off the curve) [7] [µg/mL]	also measured
B1	binds	–	–	EC50 (read off the curve) [1]: 0.04 µg/mL
B2	binds	–	–	NI activity, NA-Star assay (percent inhibition) [3]: 100%; EC50 (read off the curve) [4]: 0.07 µg/mL
B3	binds	–	–	EC50 (read off the curve) [5]: 0.1 µg/mL
B4	–	0.68	0.03	–
B5	binds	–	0.03	EC50 (read off the curve) [8]: 0.2 µg/mL; EC50 (read off the curve) [9]: 0.02 µg/mL
B6	–	0.958	–	–
B7	–	1.16	0.03	–
B8	–	1.05	0.05	–
B9	–	0.00298	–	EC50 (read off the curve) [10]: 0.07 µg/mL
B10	–	0.00472	–	–
B11	binds	–	–	EC50 (read off the curve) [10]: 0.06 µg/mL
B12	–	0.00891	–	–
B13	–	0.00336	–	–
